According to the domain aggregation screens of Martell et al. (2025):

Experiment: soluble fraction after stress (log2 fold change); higher = more stays soluble; pooled small domains, quantitative proteomics
Details: stress: 50 degC
Procedure, shortened: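 The stress applied to every library was 50°C. These custom libraries of small protein domains were pooled and measured at high throughput with quantitative proteomics as the read-out. Aggregation propensity is expressed as the base-two logarithm of the fold change in how much of each protein remains soluble. The higher the value, the more of that protein stays in solution.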

Going from “HMARKFQKDTGYLNKKERTWLLDFFPSLKKYLYTGAYIRSIIVVESNVTYTDKELPSNYTFTYKFA” to “HMADGDIIPEGQRDATLASLAGSMRARGMTEAEILAALQVTNETRVRPPMALADLERIARSIGRYEPGK”, the “soluble fraction (log2)” value rises from -0.252 to 0.0818.

First: HMDVMNEIQQKAFDIYIQSASLKNDFTPISERALAKKLHDMGLKSSMSAIGRWKKKFGWVQSLQNKVTLA
Second: HMENEFEAYSDGSSIQLNDPSKATYVVFDRQGRLLHLFQNHSLSSLSIERKNQILIITRETADGVSVKKIV
The “soluble fraction (log2)” value of the first is higher: -0.128 for the first, -0.415 for the second.

Compared with “HMKKIFIDAPLDTMITIPKDTTHHLLTVFRHKMEKPVLVGGSDGRTGVYQIQDVVDGEASAKLVGDIQ”, “HMKQPNSYGSVHKLPGKRRKPWRVRKTSGWLLDEQSGTVKQQYITIGYYATKQEALIALADYNENP” is lower in “soluble fraction (log2)” value: 0.514 for the first, -1.62 for the second.

Going from “HMQLSQLLQPFDINAFKGHPLYTEENVKMFNDYTNRVKEWTKGTPYEQYWVTKEGQPTMLAWDSFKK” to “HMHTDDDGITEAFPHLRLLSLGEDILDLLEKSRFIRKLNNELVYYVVDFREQNSIDGRRYHPSIYHNL”, the “soluble fraction (log2)” value rises from -0.972 to -0.258.

“HMPDFAENAVYGKQREDSLYAHAYKHFQLGDTTTVRAAEHLSAEIYPLGQHRPKFMFLNAVTR” and “HMSTPENLGGRNTAKARISWLENGVKQELESDFPAAEVVKLSSRFGGEVPELTVIRPSLEDIYLKMIG” are within 0.2 log units of each other in “soluble fraction (log2)” value: 0.0766 for the first, 0.0409 for the second.

Compared with “HMTRILTEDDIVNFLIRQPDTAYIIAKSFNENERKVKELLDLLIKKNKVREEIVNGVVSYAVN”, “HMDNEIRIPLPSLQRDGFSIGTREDDGSQLVRIMSAGSFGGMIRSFRLPEGMRIEGAKWEGEIVSIRL” is higher in “soluble fraction (log2)” value: -0.199 for the first, 0.0774 for the second.

Compared with “HMRPFAMNLLEKHKADIEVWLKHPNMTNTQIKRLLEELGTSVSVSSIDRFISTSFPKLPKHT”, “HMTNVNSLIGKKAIVIQDIDNLKSTGQVKIGGEIWSAQSESNDIISKDTEVEIVKIDGVKLIVRLVPV” is higher in “soluble fraction (log2)” value: -0.17 for the first, 0.1 for the second.

Going from “HMLQKEVHQQIQQALRALPYHQRTAIVLYYYEGMSVKEIAQATGSMQGTVQSRLFFARKKLRPILESILKK” to “HMVVPSNPDELKGSFSLAEVASGYGLEVAAILEKAGWPADTDPNVKMRDAANAIGRDSTDIRNAVKALLKS”, the “soluble fraction (log2)” value rises from -0.453 to -0.0505.

First: HMTQHDIVPLMLKMVDVLTQFVELDIPFLQQERQTRLAALNAMMGRADVSLAEKYRRIMEAYQVETEYG
Second: HMFHDPTMEETLINLKGITNEVLSLLSSSKIKKLEDLAEMSVPELRDIVENISDEEASALIMEARKPWF
The “soluble fraction (log2)” value of the first is higher: -0.0938 for the first, -0.446 for the second.

Compared with “HMGSIDYLVGSRLRQYRRLRGYSLIEFSAMLHRSKSAISKYERGEVSIDLRTLNEMARLLDIPLSGLLL”, “HMDNTFEEVKEKLLDLLKERPLTPAEVSKRMEEDKNILAQVIQYLLEEEIIKTEDGMLSKVIG” is higher in “soluble fraction (log2)” value: -4.56 for the first, -0.0569 for the second.

Compared with “HMAKIDSRKALIDQLTTTFTRAQLEELITKNELSTDARFFLSQWNAKGWIRKTAKNVYEKLR”, “HMADLVYLRKRLQDAIAQLPEDMRTAYTLFQIARRSIREIAELTGASESLVKVRIHRAKGKLQELLEDLR” is lower in “soluble fraction (log2)” value: -0.134 for the first, -1.87 for the second.

First: HMNQLSYTERRVLQVIEGGTTKTGEIEQALAAKMSRPTVHRALDALVGANRIHRLARGEYALGPAP
Second: HMSELLIVGSEQDNTRLDRFLADQYEEYTRSFLQKLIDQGNVSINGISVKKSGIKLKENDEIAVTLPEPQ
The “soluble fraction (log2)” value of the first is lower: -0.147 for the first, 0.389 for the second.

“HMQDEREEIAVEDVVGMPLWQARKVIADQGFRVLDDGAGDIVIAQMPSGGGKLIEGGQVMLYTYTD” and “HMKIVQDIAFSDFLNEVEKDNVLDVNIKGDLINGNLADGRKFKTYTPYDPNLIEKLSNKNVTINVEPYN” are within 0.2 log units of each other in “soluble fraction (log2)” value: 0.186 for the first, 0.198 for the second.

First: HMREEQELFRKLLEVNGIGPKVAAGMLAGGRPEDVVSAIRREDVAWLTKLPGIGRKTAQRIVLDLKDKLD
Second: HMHLTNIPKGFTPSFDTKQWIVEEFGERYNYDNELKIFINHYRASGTTKSDWQYAFRSWLLRAKKFT
The “soluble fraction (log2)” value of the first is higher: -0.0754 for the first, -2.32 for the second.

First: HMKTRYPNVYQDEKGKFFYQIFIGTDTNGRKKLKKGRRDALGHPFSSAYQASKEAKRVQALYANVS
Second: HMGGEHPIPEDWAVNEANYEHGAKFYGYTRAHVDAEAQAFRDQYAANGKKYVDWDAHFRTFMRWQNERRYG
The “soluble fraction (log2)” value of the first is lower: -1.23 for the first, -0.111 for the second.

Going from “HMTMVVIMNADATQADIEGVISAIEEKGLEAKVMEGAHQKIVGVIGDKTKLAATPLDAMHGVETTVAIS” to “HMGSKKITIYVSGEVKNPGIVTLNSDQRLASAVEKLGGVTENADMNNINLAMKLEDEMHYIIPKKGEK”, the “soluble fraction (log2)” value rises from -0.0878 to 0.28.

Going from “HMQAKNGTVTGSVVNVRGGAGTQYAVKGKASRGTKVTILGQQSSWLNVRLDNGVTGWIHADYVQISE” to “HMDLEMLEVEDTIKDLLSQHQKINAIKYYRNYMSEQLNVDMGLRQAKDTIDAIGRGATVDLSVGY”, the “soluble fraction (log2)” value falls from 0.463 to -0.0705.

First: HMESKPLTPSEIKKLRMDANMTQAGLAEVLGMTVKAVEAWESGRNIPSGAADKILRVMQKHPSVIGMMQS
Second: HMQAVDPLELRAGDFVVHEQHGIGRYVEMVQRTIGGITREYLVIEYAPAKRGQPNDRVFVPTDTLEQVS
The “soluble fraction (log2)” value of the first is higher: 0.156 for the first, -0.514 for the second.

For “HMSVNEKVRLFRELNQWSQEEMAERMNMSVAGYAKIERGETNISLHKLKQIASVLQIDLLDLVS”, the “soluble fraction (log2)” value was -0.32.
